Measured values taken from patent US20150377889.

Biological target: recombinant wild type full-length human galectin-3, His-tagged (unphosphorylated)
Sequence (chain, as listed by the source): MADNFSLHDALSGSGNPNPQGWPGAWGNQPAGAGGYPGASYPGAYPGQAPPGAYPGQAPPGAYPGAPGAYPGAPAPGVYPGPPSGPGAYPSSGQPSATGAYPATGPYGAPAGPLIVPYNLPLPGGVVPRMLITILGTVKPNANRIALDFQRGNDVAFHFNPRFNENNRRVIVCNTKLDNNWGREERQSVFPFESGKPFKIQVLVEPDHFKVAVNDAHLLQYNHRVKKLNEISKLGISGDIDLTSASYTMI

B1: active c-Abl kinase (protein)
chain: PVNSLEKHSWYHGPVSRNAAEYLLSSGINGSFLVRESESSPGQRSISLRYEGRVYHYRINTASDGKLYVSSESRFNTLAELVHHHSTVADGLITTLHYPAPKRNKPTVYGVSPNYDKWEMERTDITMKHKLGGGQYGEVYEGVWKKYSLTVAVKTLKEDTMEVEEFLKEAAVMKEIKHPNLVQLLGVCTREPPFYIITEFMTYGNLLDYLRECNRQEVNAVVLLYMATQISSAMEYLEKKNFIHRDLAARNCLVGENHLVKVADFGLSRLMTGDTYTAHAGAKFPIKWTAPESLAYNKFSIKSDVWAFGVLLWEIATYGMSPYPGIDLSQVYELLEKDYRMERPEGCPEKVYELMRACWQWNPSDRPSFAEIHQAFETMFQESSISDEVEKELGKQGVRGAVSTLLQAPELPTKTRTSRRAAEHRDTTDVPEMPHS
  in vitro tyrosine phosphorylation of galectin-3 (c-Abl kinase assay, pTyr blot): phosphorylating galectin-3 in vitro with active c-Abl
